In patent US20250122242A1, “SELECTION SYSTEMS, PEPTIDES DETERMINED THEREWITH, AND METHODS OF USING SAME” (Wisconsin Alumni Research Foundation, priority 2023, published 2025):

What was measured:
hIAPP-T7n = hIAPP-T7n (UniProt P00573+P10997); settings: for Percent total reads (positive selection) / Rank (positive selection): positive selection on hIAPP, high-throughput sequencing; for Rank (positive selection): top enriched sequences
Text: Next, we examined if our system could discover inhibitors of other disease-associated APPs. We targeted human islet amyloid polypeptide (hIAPP), which forms amyloid deposits in patients with type-2 diabetes that are hypothesized to contribute to […] dysfunction.^40 To create a selection for hIAPP aggregation inhibitors, we simply cloned hIAPP in place of Aβ42 in our selection circuit (FIG. 2B). We used an SP-encoded CZ6 SICLOPPS library (Z=NDT codon encoded amino acid: R, N, D, C, G, H, I, L, F, S, Y, or V) (˜3×10^6 total sequences). This codon set was chosen to reduce the theoretical library size and facilitate library cloning. The library (total of ˜5×10^6 transformants) was cloned on a SP obtained from an additional 250 hours of PACE using a more stringent selection (FIGS. 10A-10D).
We performed five rounds of selection, diluting the SP pool by ten-fold each round (FIG. 4A). […] To verify that we selected phage with higher activity, we measured the propagation of the SP from each round on hIAPP selection cells, normalizing input phage titers to […] to enable head-to-head comparison between phage pools.
Single colonies of host cells transformed with the appropriate selection plasmids were used to make overnight cultures in 2×YT with maintenance antibiotics. The overnight culture was diluted (1:100) into 4-5 mL DRM with maintenance antibiotics and incubated at 37° C. with shaking until the OD600 of the culture reached ˜0.5, upon which the expanded phage library was added at a titer of 1×10^6 pfu/mL. The culture was incubated at 37° C. with shaking overnight (13-18 h). The next day, the culture was centrifuged at 8,000 rcf for 2 min to obtain the supernatant containing phage. The collected phage was diluted into fresh host cell cultures (10 to 1,000-fold) for the next round of selection, while the rest was stored at 4° C. for downstream analysis. This process was repeated until a significant increase in phage propagation was observed compared with the parent library. Both positive and negative selection rounds were performed using this procedure.
Sample preparation. Phage stocks collected from the final rounds of library selection were first amplified using LY0145 and LY0146. The PCR product was purified, and adapters added using LY0147 and LY0148. The resulting PCR product was purified and barcoded through a final PCR using index primers to add unique indices for shared Illumina NovaSeq sequencing. The final PCR product was purified, and the concentration measured by Nanodrop. Further sample quality control was performed by the University of Wisconsin-Madison Biotechnology Center (UWBC).
High-throughput sequencing and data analysis. High-throughput sequencing was performed by UWBC using a shared sequencing service on the NovaSeq 6000 platform. Sequencing reads were demultiplexed by UWBC and analyzed using custom-written Python scripts.

hIAPP = biological target: T1, hIAPP (Homo sapiens, UniProt P10997); assay: ThT fluorescence assay of in vitro hIAPP aggregation; format: biochemical; settings: for effect on aggregation lag time (tlag) / inhibition of hIAPP aggregation (ThT fluorescence): 10 μM hIAPP, PBS pH 6.9, 32° C.; for effect on aggregation lag time (tlag): ThT; for activity relative to MCIP-2a: at higher peptide:hIAPP stoichiometries; for inhibition of hIAPP aggregation (ThT fluorescence): chemically synthesized peptide, quiescent
T1 construct: A 1 mg portion of amylin trifluoroacetate salt (Bachem) was purchased as lyophilized solid in a vial; purchased Bachem
T1 sequence (P10997 34-70 limits assumed): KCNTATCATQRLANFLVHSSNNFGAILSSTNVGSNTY
Description: Preparation of ThT stock solution. To prepare a stock solution of ThT (2-3 mM), 2-4 mg of ThT was added to 3 mL PBS (pH 6.9) in a 15 mL conical tube. The solution was sonicated for 5 min and the supernatant was filtered through a 0.22 μm syringe filter into a 1.5 mL Eppendorf tube. This was the ThT stock solution to be used in following experiments. 2 mL of a 1:200 diluted ThT solution was prepared by adding 10 μL ThT stock solution into 1990 μL PBS. The absorbance of the diluted ThT solution measured at 412 nm was used to calculate the ThT stock concentration using an extinction coefficient (c) of 31600 M^−1 cm^−1.
Preparation of hIAPP stocks. A 1 mg portion of amylin trifluoroacetate salt (Bachem) was purchased as lyophilized solid in a vial. The solid was dissolved in pre-chilled 2562 μL 35 mM sodium acetate (pH 5.3) to a stock concentration of 100 μM on ice. Aliquots of hIAPP were prepared by transferring 200 μL of the 100 μM hIAPP stock solution to low-protein-binding Eppendorf tubes on ice. The aliquots were then immediately snap frozen using liquid N2, lyophilized for 24 h, and stored at −80° C. until use.
Preparation of samples for ThT assays. Using cyclic peptide stock solution (100 μM) and PBS, 400 μL aqueous solution of cyclic peptide was prepared in a low-protein-binding Eppendorf tube to achieve the desired cyclic peptide:hIAPP molar ratio (80 μM for 4:1, 40 μM for 2:1, 20 μM for 1:1, 10 μM for 0.5:1, 0 μM for 0:1). 30 μL of the solution was then loaded to wells on a black clear-bottom low-binding 96-well plate (Corning 3881) to make a triplicate for each condition. This plate loaded with aqueous solutions of cyclic peptides was then ready for adding hIAPP.
Preparation and addition of hIAPP for ThT assays. Using ThT stock solution and PBS, 1 mL ThT solution (10 μM) was prepared in a low-protein-binding Eppendorf tube and chilled on ice. 0.5 mL of the pre-chilled ThT solution was added to one aliquot of lyophilized hIAPP, which was equilibrated to room temperature before opening the tube. Pipetting up and down four times was performed to facilitate complete dissolving of hIAPP. The 0.5 mL hIAPP-containing solution was immediately transferred to the remaining 0.5 mL ThT solution on ice. Pipetting up and down four times was performed to facilitate complete mixing. The resulting 1 mL hIAPP solution, where [hIAPP]=20 μM, was immediately transferred to a 25 mL liquid reservoir. Using a multi-channel pipette, 30 μL of the hIAPP solution was quickly loaded into wells containing aqueous solutions of cyclic peptides on the 96-well plate. Final [hIAPP]=10 μM, [ThT]=5 μM.
ThT assay conditions. The plate was then quickly covered and incubated in a Tecan M Plex microplate reader under quiescent condition at 32° C. for at least 12 h. ThT fluorescence at 480 nm was measured every 5 min through the bottom of the plate using an excitation wavelength of 440 nm.
Fitting of aggregation kinetics. ThT aggregation kinetics data was fit to a sigmoidal function using GraphPad Prism and the aggregation lag time (tlag) and the apparent fibril elongation rate (kapp) calculated as described.^55

Chain of hIAPP-T7n (P10997+P00573 fused): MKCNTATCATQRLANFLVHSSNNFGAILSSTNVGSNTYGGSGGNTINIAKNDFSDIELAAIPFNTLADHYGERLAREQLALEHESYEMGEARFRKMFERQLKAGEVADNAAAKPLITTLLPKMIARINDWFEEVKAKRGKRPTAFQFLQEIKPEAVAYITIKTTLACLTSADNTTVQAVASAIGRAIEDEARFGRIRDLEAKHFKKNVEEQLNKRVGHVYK

In the case of “CRCVFSG (cyclised; Circular) [cyclo-CRCVFSG]”, the “Percent total reads (positive selection)” value (hIAPP-T7n) was 0.04%, the “Rank (positive selection)” value (hIAPP-T7n) was 20 and the “effect on aggregation lag time (tlag)” value (hIAPP) was “extended tlag”. The “activity relative to MCIP-2a” value (hIAPP) was “less active than MCIP-2a” and the “inhibition of hIAPP aggregation (ThT fluorescence)” value (shortened to “inhibition of hIAPP aggregation”) (hIAPP) was “inhibited hNAPP fibrillation”.

For “CHVVGVI (cyclised; Circular) [cyclo-CHVVGVI]”, the “Percent total reads (positive selection)” value (hIAPP-T7n) was 94.40%, the “share of sequencing reads in SP pool” value (hIAPP-T7n; round 5 of hIAPP positive selection, deep sequencing) was ~95% and the “Rank (positive selection)” value (hIAPP-T7n) was 1. For the same substance, the “effect on aggregation lag time (tlag)” value (hIAPP) was “delaying the aggregation lag time (tlag) in a dose-dependent fashion”, the “activity relative to MCIP-2a” value (hIAPP) was “less active than MCIP-2a” and the “inhibition of hIAPP aggregation” value (hIAPP) was “inhibited hIAPP aggregation”.

In the case of “CDLGVFR (cyclised; Circular) [cyclo-CDLGVFR]”, the “Percent total reads (positive selection)” value (hIAPP-T7n) was 0.08%, the “Rank (positive selection)” value (hIAPP-T7n) was 14 and the “effect on aggregation lag time (tlag)” value (hIAPP) was “extended tlag”. For the same substance, the “activity relative to MCIP-2a” value (hIAPP) was “less active than MCIP-2a” and the “inhibition of hIAPP aggregation” value (hIAPP) was “inhibited hNAPP fibrillation”.
